Reference: patent US20220106400A1 (Bristol-Myers Squibb, published 2022)
Positions count from the first letter of the chain named. In names and notes the source's numbering stands. Several values for one entry are separate records, joined by “and”; a condition that tells them apart may be missing. Equal entries are not always repeated. Where two headings read alike, the source gives them in different places.

T1: N-terminal domain of hCD73 (residues 26-336 of human CD73), his-tagged (human, UniProt P21589 26-336)
T1 construct: also called N-hCD73; N-hCD73-his
T1 sequence (looked up): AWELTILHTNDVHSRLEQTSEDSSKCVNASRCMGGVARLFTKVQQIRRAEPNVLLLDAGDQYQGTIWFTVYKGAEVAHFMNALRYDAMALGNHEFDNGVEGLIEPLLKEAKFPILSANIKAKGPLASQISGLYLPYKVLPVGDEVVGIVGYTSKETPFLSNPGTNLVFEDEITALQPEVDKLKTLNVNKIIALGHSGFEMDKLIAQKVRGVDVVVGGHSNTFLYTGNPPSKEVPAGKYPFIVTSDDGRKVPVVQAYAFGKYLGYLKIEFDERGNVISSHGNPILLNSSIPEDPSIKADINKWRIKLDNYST

T2: human CD73 on human tumor cell lines (human, UniProt P21589 27-549)
T2 sequence (looked up): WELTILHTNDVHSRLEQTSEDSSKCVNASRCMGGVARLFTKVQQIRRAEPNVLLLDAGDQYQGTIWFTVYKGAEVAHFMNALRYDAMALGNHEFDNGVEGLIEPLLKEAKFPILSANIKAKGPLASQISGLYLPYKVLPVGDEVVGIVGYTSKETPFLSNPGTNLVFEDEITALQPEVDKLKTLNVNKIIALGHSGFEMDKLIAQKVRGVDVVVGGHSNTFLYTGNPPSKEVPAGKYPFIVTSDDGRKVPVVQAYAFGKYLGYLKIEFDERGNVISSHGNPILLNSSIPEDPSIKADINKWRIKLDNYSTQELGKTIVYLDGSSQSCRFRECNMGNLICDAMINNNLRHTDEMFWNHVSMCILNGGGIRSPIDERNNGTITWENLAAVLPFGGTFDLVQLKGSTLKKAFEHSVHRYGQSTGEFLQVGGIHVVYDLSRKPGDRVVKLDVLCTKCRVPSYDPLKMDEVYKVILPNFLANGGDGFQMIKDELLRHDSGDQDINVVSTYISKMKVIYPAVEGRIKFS

T3: full length extracellular domain of human-CD73 with C-terminal polyhistidine tag (residues 26-546) (human, UniProt P21589 26-546)
T3 construct: range 26-546; also called hCD73-his; CD73-his
T3 sequence (looked up): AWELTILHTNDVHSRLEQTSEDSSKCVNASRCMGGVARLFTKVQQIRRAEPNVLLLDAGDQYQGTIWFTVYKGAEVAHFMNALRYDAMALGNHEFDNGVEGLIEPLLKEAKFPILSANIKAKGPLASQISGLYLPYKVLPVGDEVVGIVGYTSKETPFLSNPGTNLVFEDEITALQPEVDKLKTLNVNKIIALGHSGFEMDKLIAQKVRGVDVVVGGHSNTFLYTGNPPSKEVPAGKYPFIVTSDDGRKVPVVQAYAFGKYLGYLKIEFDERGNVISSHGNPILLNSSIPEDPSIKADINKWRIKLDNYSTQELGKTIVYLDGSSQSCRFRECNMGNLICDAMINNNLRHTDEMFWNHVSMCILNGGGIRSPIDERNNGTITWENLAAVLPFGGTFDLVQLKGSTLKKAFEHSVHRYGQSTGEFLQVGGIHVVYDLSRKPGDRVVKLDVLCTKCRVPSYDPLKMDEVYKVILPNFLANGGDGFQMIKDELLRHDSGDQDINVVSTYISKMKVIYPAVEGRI

T4: human GITR (human, UniProt Q9Y5U5 26-241)
T4 sequence (looked up): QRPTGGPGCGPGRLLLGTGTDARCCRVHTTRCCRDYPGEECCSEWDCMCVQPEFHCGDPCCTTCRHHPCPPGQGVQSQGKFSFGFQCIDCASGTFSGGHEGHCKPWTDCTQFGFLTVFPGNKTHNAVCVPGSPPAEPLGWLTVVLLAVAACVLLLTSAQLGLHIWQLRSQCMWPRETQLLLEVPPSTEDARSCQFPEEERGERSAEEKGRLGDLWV

B1: 11F11 (antibody, human IgG2, kappa, V domains shown)
VH: QVQLVESGGGVVQPGRSLRLSCATSGFTFSNYGMHWVRQAPGKGLEWVAVILYDGSNKYYPDSVKGRFTISRDNSKNTLYLQMNSLRAEDTAVYYCARGGSSWYPDSFDIWGQGTMVTVSS
VL: DIQMTQSPSSLSASVGDRVTITCRASQGISSWLAWYQQKPEKAPKSLIYAASSLQSGVPSRFSGSGSGTDFTLTISSLQPEDFATYYCQQYNSYPLTFGGGTKVEIKR
notes: hybridoma derived anti-CD73 antibody, IgG2 constant region; also called 11F11(IgG2)
B2: CD73.10-IgG2-C219S (antibody)
heavy: QVQLVESGGGVVQPGRSLRLSCAASGFTFSNYGMHWVRQAPGKGLEWVAVIWYDESNKYYPDSVKGRFTISRDNSKNTLYLQMNSLRAEDTAVYYCARGGSSWYPDSFDIWGQGTMVTVSSASTKGPSVFPLAPCSRSTSESTAALGCLVKDYFPEPVTVSWNSGALTSGVHTFPAVLQSSGLYSLSSVVTVPSSNFGTQTYTCNVDHKPSNTKVDKTVERKSCVECPPCPAPPVAGPSVFLFPPKPKDTLMISRTPEVTCVVVDVSHEDPEVQFNWYVDGVEVHNAKTKPREEQFNSTFRVVSVLTVVHQDWLNGKEYKCKVSNKGLPAPIEKTISKTKGQPREPQVYTLPPSREEMTKNQVSLTCLVKGFYPSDIAVEWESNGQPENNYKTTPPMLDSDGSFFLYSKLTVDKSRWQQGNVFSCSVMHEALHNHYTQKSLSLSPG
light: not shown
notes: anti-CD73; also called CD73.10-IgG2CS; CD73.10-Vh-hHC-IgG2-C219S
B3: CD73.4-IgG2-C219S (antibody)
heavy: B2 heavy with W52L, E55G
light: not shown
notes: anti-CD73; also called CD73.4-IgG2CS; CD73.4-IgG2.3
B4: CD73.10-IgG2-C219S-IgG1.1 (antibody)
heavy: B2 heavy with Q274K, F296Y, F300Y, V309L, G327A, A330S, P331S, T339A
light: not shown
notes: anti-CD73; also called CD73.10-IgG2CS-IgG1.1f; CD73.10-Vh-hHC-IgG2-C219S-IgG1.1f
B5: GITR.6.G2 (antibody, human IgG2, kappa)
heavy: QVQLVESGGGVVQPGRSLRLSCAASGFTFSSYGMHWVRQAPGKGLEWVAVIWYEGSNKYYADSVKGRFTISRDNSKNTLYLQMNSLRAEDTAVYYCARGGSMVRGDYYYGMDVWGQGTTVTVSSASTKGPSVFPLAPCSRSTSESTAALGCLVKDYFPEPVTVSWNSGALTSGVHTFPAVLQSSGLYSLSSVVTVPSSNFGTQTYTCNVDHKPSNTKVDKTVERKCCVECPPCPAPPVAGPSVFLFPPKPKDTLMISRTPEVTCVVVDVSHEDPEVQFNWYVDGVEVHNAKTKPREEQFNSTFRVVSVLTVVHQDWLNGKEYKCKVSNKGLPAPIEKTISKTKGQPREPQVYTLPPSREEMTKNQVSLTCLVKGFYPSDIAVEWESNGQPENNYKTTPPMLDSDGSFFLYSKLTVDKSRWQQGNVFSCSVMHEALHNHYTQKSLSLSPGK
light: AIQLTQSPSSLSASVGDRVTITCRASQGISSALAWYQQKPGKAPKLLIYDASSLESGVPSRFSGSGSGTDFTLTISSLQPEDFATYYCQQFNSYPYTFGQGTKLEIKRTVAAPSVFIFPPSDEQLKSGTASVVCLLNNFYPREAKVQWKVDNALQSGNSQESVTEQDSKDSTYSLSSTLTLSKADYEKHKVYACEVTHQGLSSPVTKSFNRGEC

Experiments:
[1] = target: T1, N-terminal domain of hCD73 (residues …); assay: SPR Biacore T100, mAb captured on protein A, N-hCD73-his analyte, 25 C; separate experiment
Method: (§1) The affinity of the antibodies for human CD73 was measured to determine whether the change of the constant region affects them. The affinities were determined by Surface Plasmon Resonance (SPR) as follows. […] For these experiments, protein A (Pierce) was immobilized to a density of 3000-4000 RU on flow cells 1-4 of a CM5 sensor chip (GE Healthcare) using standard ethyl(dimethylaminopropyl) carbodiimide (EDC)/N-hydroxysuccinimide (NHS) chemistry, with ethanolamine blocking, in a running buffer of 0.01 M HEPES pH 7.4, 0.15 M NaCl, 3 mM EDTA, 0.005% v/v tween 20. Kinetic experiments were performed by first capturing antibodies (5-10 ug/ml) on the protein A surfaces using a 30 s contact time at 10 ul/min, with binding of 600, 200, 66.7, 22.2, 7.4, and 2.5 nM N-hCD73-his, using a 180 s association time and 360 s dissociation time at a flow rate of 30 ul/min. The running buffer for the kinetic experiments was 10 mM sodium phosphate, 130 mM sodium chloride, 0.05% tween 20, pH 7.1. The surfaces were regenerated after each cycle using two 30 s pulses of 10 mM glycine pH 1.5 at a flow rate of 30 μl/min. Sensogram data was double-referenced and then fitted to a 1:1 Langmuir model using Biacore T100 evaluation software v2.0.4, to determine the association rate constant (ka), the dissociation rate constant (kd), and the equilibrium dissociation constant (KD).

[2] = target: T1, N-terminal domain of hCD73 (residues …); assay: SPR Biacore T100, mAb captured on protein A, N-hCD73-his analyte, 25 C
Method: as §1

[3] = target: T2, human CD73 on human tumor cell lines; assay: cell-based or functional assay
[4] = target: T2, human CD73 on human tumor cell lines; assay: cell-based or functional assay; remark: listed apart in the source
[5] = target: T2, human CD73 on human tumor cell lines; assay: cell-based or functional assay; remark: listed apart in the source
[6] = target: T2, human CD73 on human tumor cell lines; assay: cell-based or functional assay; remark: listed apart in the source
[7] = target: T3, full length extracellular domain of …; assay: SEC, 1:1 molar mix 5.5 uM each
Method: The oligomeric state of CD73/antibody complexes were examined by size-exclusion chromatography coupled to an in-line multi-angle light scattering detector (SEC-MALS). Isocratic separations were performed on a Shodex PROTEIN KW-803 column connected to an Prominence Shimadzu UFLC in buffer containing 200 mM K₂HPO₄, 150 mM NaCl, pH 6.8, containing 0.02% Na azide (0.1 μm filtered) running at 0.5 mL/min. Samples were injected onto the column using a SIL-20AC Prominence Shimadzu autosampler, and data were obtained from three online detectors connected in series: a Prominence SPD-20AD diode array UV/vis spectrophotometer followed by a Wyatt miniDAWN™ TREOS Multi-Angle Light Scattering Detector then a Wyatt Optilab T-rEX Refractive Index Detector. Data were collected and analyzed using Astra (Wyatt) and Labsolutions (Shimadzu) software.
CD73.4 antibodies having the heavy chain constant regions set forth in Table 14 were also tested for formation of high molecular weight complexes by SEC-MALS and DLS experiments, as described in Example 3.

[8] = target: T4, human GITR; assay: cell-based or functional assay

Binder | Kd [1] [nM] | koff [1] [s⁻¹] | kon [1] [M⁻¹ s⁻¹] | Kd [2] [nM] | koff [2] [s⁻¹] | kon [2] [M⁻¹ s⁻¹] | EC50 of CD73 internalization, Calu6, 2 h [3] [nM] | Ymax of CD73 internalization, Calu6, 2 h [3] | % internalization, Calu6 [4] [%] | % internalization, H2030 [4] [%] | % internalization, H2228 [4] [%] | % internalization, HCC15 [4] [%] | T1/2 internalization, Calu6 [4] [min] | T1/2 internalization, H2030 [4] [min] | T1/2 internalization, H2228 [4] [min] | T1/2 internalization, HCC15 [4] [min] | further results
B1 | 0.56 | 0.00016 | 290000 | 1.6 | 0.00042 | 260000 | 0.58 | 98 % of 100 nM 11F11 |  |  |  |  |  |  |  |  | 
B2 | 8.3 | 0.0018 | 220000 | 6.2 | 0.0014 | 220000 | 0.67 | 99 % of 100 nM 11F11 | 91 | 85 | 93 | 91 | 3 | 3.3 | 9.7 | 2.6 | 
B3 |  |  |  | 0.55 |  |  |  |  | 88 | 89 | 94 | 94 | 6.5 | 3.7 | 13.8 | 3.1 | T1/2 internalization, Calu6 [5]: 36 min; T1/2 internalization, NCI-H292 [5]: 16.6 min; Ymax internalization, Calu6 [5]: 75.6%; Ymax internalization, NCI-H292 [5]: 78.4%; T1/2 internalization, Calu6 [6]: 22.4 min and 21.8 min; T1/2 internalization, NCI-H292 [6]: 17.2 min and 17.1 min; UV % Peak1 <12.9 min [7]: 37%; UV % Peak3 15.1-16.7 min [7]: 7.7%; UV % Peak4 16.7-19.3 min (free mAb) [7]: 28.6%; UV % Peak5 >19.3 min [7]: 2.9%
B4 | 6.8 | 0.0016 | 230000 | 5.7 | 0.0014 | 240000 | 0.87 | 99 % of 100 nM 11F11 | 91 | 87 | 92 | 91 | 3.1 | 4.3 | 9.4 | 3 | 
B5 |  |  |  |  |  |  |  |  |  |  |  |  |  |  |  |  | NFKB signaling in TCR activated CD4+ T cells, EC50 [8]: 12.8 nM; NFKB signaling in TCR activated CD4+ T cells, Emax [8]: 69%; NFKB signaling in TCR activated CD8+ T cells, EC50 [8]: 9 nM; NFKB signaling in TCR activated CD8+ T cells, Emax [8]: 85%
